The target in one test is His-LpxA (C. sakazakii) (UniProt A7MI18).
The target in test [1] is Labp V94A expressed from pKT25 (C. sakazakii). Briefly: two-hybrid; bacterial adenylate cyclase-based two-hybrid (BACTH) in E. coli BTH101, pKT25 and pUT18C fusions, β-galactosidase activity in Miller units.

LpxA enzymatic activity: fluorescence of ThioGlo-ACP conjugates (RFU) with UDP-GlcNAc and R-3-hydroxymyristoyl-ACP; 10 nM LpxA with 300 nM His-CSK29544 02616 against LpxA alone and fold reduction in ß-galactosidase activity compared to intact Labp data for two molecules are collected here from article PMC5770445.

In turn, “His-CSK29544_02616 (His×6-tagged CSK29544_02616 product, Labp) (natural protein)” displayed a LpxA enzymatic activity: fluorescence of ThioGlo-ACP conjugates (RFU) with UDP-GlcNAc and R-3-hydroxymyristoyl-ACP; 10 nM LpxA with 300 nM His-CSK29544 02616 against LpxA alone with His-LpxA (C. sakazakii) of 2 fold.

B1: LpxA expressed from pUT18C (enzyme)
chain: MIDKTAFIHPTAIVEEGAVIGANAHIGPFCIVGPDVKIGEGTVLKSHVVVNGHTTIGRDNEIYQFASIGEVNQDLKYAGEPTRVEIGDRNRIRESVTIHRGTAQGGGLTKVGSDNLLMINAHVAHDCTVGNRCILANNATLAGHVSVDDFAIIGGMTAVHQFCIIGAHVMVGGCSGVAQDVPPYVIAQGNHATPFGVNIEGLKRRGFSKEALHAIRNAYKLLYRSGKTLDEVKPEIAEIAAKHPEVQPFYDFFARSTRGLIR
In turn, B1 registered a fold reduction in ß-galactosidase activity compared to intact Labp in test [1] of 4 fold.
